Data from publication PMC8184817, “Transmission of light signals from the light-oxygen-voltage core via the hydrophobic region of the β-sheet surface in aureochrome-1” (Scientific Reports, 2021).
Residue numbers refer to the chain shown, from its start.

Assays:
Settings in all cases: protein: recombinant; chain copies: 2; label: Alexa Fluor647 (EMSA); biotin (QCM); blunt; self-complementary palindrome, 2 copies
PZ V314I = target: T1, PZ V314I (Vaucheria frigida? (VfAUREO1), UniProt A8QW55 113-348, C162S;C182S;V314I); test: EMSA; QCM; dark state; EC50 similar to light; EMSA: 5% polyacrylamide gel, 25 C, dark or blue light 5 W/m2; QCM: 27 MHz, QCM buffer, 25 C; buffer, salt and pH not given (earlier papers cited); EC50 values (nM, per monomer) only in figures
T1 sequence: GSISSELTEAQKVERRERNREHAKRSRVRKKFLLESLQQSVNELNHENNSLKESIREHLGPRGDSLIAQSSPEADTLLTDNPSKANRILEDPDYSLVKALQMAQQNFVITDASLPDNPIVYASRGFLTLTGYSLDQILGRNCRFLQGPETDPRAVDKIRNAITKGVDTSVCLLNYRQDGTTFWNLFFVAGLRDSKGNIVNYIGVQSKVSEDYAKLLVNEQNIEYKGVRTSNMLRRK

PZ L212A = target: T2, PZ L212A (Vaucheria frigida? (VfAUREO1), UniProt A8QW55 113-348, C162S;C182S;L212A); test: EMSA; QCM; dark state; EC50 similar to wtPZ; EMSA: 5% polyacrylamide gel, 25 C, dark or blue light 5 W/m2; QCM: 27 MHz, QCM buffer, 25 C; buffer, salt and pH not given (earlier papers cited); EC50 values (nM, per monomer) only in figures
T2 sequence: T1 sequence with L100A, I202V

PZ N218A = target: T3, PZ N218A (Vaucheria frigida? (VfAUREO1), UniProt A8QW55 113-348, C162S;C182S;N218A); test: as above
T3 sequence: T1 sequence with N106A, I202V

PZ Q216A = target: T4, PZ Q216A (Vaucheria frigida? (VfAUREO1), UniProt A8QW55 113-348, C162S;C182S;Q216A); test: as above
T4 sequence: T1 sequence with Q104A, I202V

Measured: binding result

B1: dsApo (dsDNA)
DNA 1: GCTGTCTGACGTCAGACAGC
DNA 2: GCTGTCTGACGTCAGACAGC
binds: PZ V314I | PZ L212A | PZ N218A | PZ Q216A
